Measured values reported in the RNAGym collection of RNA variant scans (doi:10.1073/pnas.2313332121).
Variants at the floor of the assay were thinned out.

B1: TPR 5TU (parent)
chain: GGAUCUUCUCGAUCUAACAAAAAAGACAAAUCUGCCACAAAGCUUGAGAGCAUCUUCGGAUGCAGAGGCGGCAGCCUUCGGUGGCGCGAUAGCGCCAACGUUCUCAACUAUGACACGCAAAACGCGUGCUCCGUUGAAUGGAGUUUAUCAUG

Variants of: B1
Experiment: polymerase ribozyme fitness, log enrichment relative to wild type (log ratio); higher = more active; in vitro selection for triplet polymerase activity
Procedure, shortened: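 Genotype fitness is the logarithm of its enrichment divided by wild-type enrichment, using inverse-variance-weighted averages of replicates. That logarithm is base 2. Enrichment was measured by Illumina sequencing of input and output libraries from one triplicate in vitro selection round, with frozen incubation at −7 °C, on PCR-built, transcribed mutant libraries of each subunit of a heterodimeric triplet polymerase ribozyme, retaining genotypes with ≥10 input reads and ≥1 read per output.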

Variant | polymerase ribozyme fitness (log ratio)
G42A G88A G124A C125U C129A | ≤ -4.2
A41G G88U | -3.82
U44A C131G | ≤ -4.2
G42A U56A C95U U111G | -4
A41U A60U U144G | -0.464
G46A G50C A52C C69A | ≤ -4.2
G46U A98G | 0.0194
A41G C57A G59A G68U | ≤ -4.2
C43U C85U G88U C96A C123G G124C C129U G133C U139C | ≤ -4.2
U44G C57G A91U A107G C125U U130C U135G | ≤ -4.2
G42A U53A U77G A91U A115G U135G | ≤ -4.2
U45G A52U U55A A73U C85U G117A C149A | ≤ -4.2
G46A G59U | 0.917
C43G G88A C95U C105A | ≤ -4.2
G46A G83A | -0.911
A41U C105G | -1.73
U44G G50A C57G C72G C114A G140C | ≤ -4.2
G42A G92C | -3.91
A41G U44G C75A G92A U102A U148C | ≤ -4.2
C43U A89U G94U C105G C132A U151C | ≤ -4.2
U45A C79G G84C C93G U102G | ≤ -4.2
A41C U56A C57A A115U C116U | -2.62
G42A G86A | -3.97
G42C U55A G92C A115U A150U | ≤ -4.2

Variant | polymerase ribozyme fitness (log ratio)
G46C C149U | -2.58
G42C U101G G136U | ≤ -4.2
G46A G74C | ≤ -4.2
C43U G74C C93G U146A | ≤ -4.2
G46A G70U C85G | ≤ -4.2
A41U A49C C96G A113G U135C C149U | ≤ -4.2
G46U C69U C96A A110U A121C | ≤ -4.2
U44A U90G C93U G143A U151G | ≤ -4.2
G46C A49U U56A G86A C87A C103G A147U | ≤ -4.2
G42C G83A A106U | ≤ -4.2
U45G G50C G81C C85A C118A | ≤ -4.2
A41G C76U G84U C85A A97U G100A G140U | ≤ -4.2
G46A A47C U53A C57U A107U G117A | ≤ -4.2
A41C U53A U135A | -1.07
G46C C76U U102C C116U A137C | ≤ -4.2
G46C C54A U61A C63U G70A G84A C93U G100A C116G | ≤ -4.2
U45A G46C A98U | ≤ -4.2
A41U C85G G126A | -2.76
G42C G86U U109G G141U | ≤ -4.2
G42C A49U C63U | -4.12
U45A G67A C79A A91U A121G | ≤ -4.2
G42U C85A C99U C108G A110G | ≤ -4.2
G46A A97U U109G A121G U135C | ≤ -4.2
A41C U127G G136U G141U | ≤ -4.2

Variant | polymerase ribozyme fitness (log ratio)
C43G G86A | ≤ -4.2
U45A G50A U135G | ≤ -4.2
G42A C75G C96G | ≤ -4.2
G46C G48A A73U U77C G80U C87U | -3.85
U45G C93A C116U | -2.88
C43G G67U G83U C93G C103U C116A | ≤ -4.2
C43A G80C G94U | ≤ -4.2
U44A C54A C75G G92U U145C | ≤ -4.2
U45A C114U | -4.01
G42A A52C | -3.82
A41G C75U C93G | -2.6
G42C U53A C79U C85G A89U C125U | ≤ -4.2
C43U A47C U56A U78G C87G | ≤ -4.2
U45A C76U C125G | -3.81
A41G U77G C85G C96U G124C | ≤ -4.2
C43U C132U | ≤ -4.2
G46A G143C | -3.81
A41G C63U | 0.774
G46C C57U U61G C75G A119U G141A | ≤ -4.2
A41G G42A G92C U111C A113U C125G | ≤ -4.2
G46U A91C C105U C114U U146G | ≤ -4.2
G42A G59A G74U C96G A137G | ≤ -4.2
U44G A49C C93U C125U A150U | ≤ -4.2
U44A G117A U135G | ≤ -4.2

Variant | polymerase ribozyme fitness (log ratio)
G46A C85U A89G C96A A106C U145C U146G | ≤ -4.2
A41U G136A | 0.0389
A41U G86U C125U U127G | -4.16
G46A C96U | 0.0159
U45A A47C C54A C57A U90C G140C | ≤ -4.2
U44A C79U A89G U104A A107G | ≤ -4.2
G42C A49C | ≤ -4.2
U45A U55A | -2.95
G46U G59A G74A G84C U104C G112C U134G U145A | ≤ -4.2
G46U G58U A89U U102G C118G C129A G152U | ≤ -4.2
G42A A52G G70C G141C | ≤ -4.2
G46U C85A | -2.02
A41U C51G G58U U61A G68A C96A A97C U102C | ≤ -4.2
U44C G86U C103G G140A U148A | ≤ -4.2
U45C A52G C57A G92C | -2.64
A41U G65U G141C | ≤ -4.2
A41U C54U C96A | -2.16
U44A U144G U151G | ≤ -4.2
G42A U56A G67U G94A | ≤ -4.2
C43U C54U U61A A64C G84U U127A C131G A142G | ≤ -4.2
U45G G50A C54U A120C G126C | ≤ -4.2
A41U G88A C95G A106C A120G | ≤ -4.2
G46C U90A | ≤ -4.2
C43G U55C G70A C85A C87G C95U G133U | ≤ -4.2

Variant | polymerase ribozyme fitness (log ratio)
U45G U53A C85U | -1.63
C43U U61G G94U C116U U144G C149G | ≤ -4.2
U44A C95U C96G A120C | ≤ -4.2
A41U G80U U101C | -4.09
G46A U55A C63U U111C C125A | ≤ -4.2
U45A A49G G84U A115G A120G | ≤ -4.2
A41U G50A A52C C93U G100A A119C | ≤ -4.2
A41U G117C | -0.836
A41U C85U C99A C105A C118G A119C | ≤ -4.2
U45A G62C A107U | ≤ -4.2
U44C A89U C103A A120U | ≤ -4.2
U45A A60G | -2.47
C43U G46A U90C C95U A106U | ≤ -4.2
U45A A49G G83A C85U C99G U104C | ≤ -4.2
C43U U61A G80A G94U A106C A122U | ≤ -4.2
G46C C93U C96U | -2.86
U44A G58C G92C G141U C149A | ≤ -4.2
A41U U82C C87U C125G G126C U144G | -2.6
G46A A91G G136U | ≤ -4.2
A41G U55G G59A U145A | -0.554
C43U U53G | ≤ -4.2
A41U U145A | -0.141
A41U G58A A147U | 0.803
A41U G140A | -3.78

Variant | polymerase ribozyme fitness (log ratio)
C43U C72U G92U | ≤ -4.2
G42U G80A U104C | ≤ -4.2
U44A G81A A137G | ≤ -4.2
U44G A60U A115C | ≤ -4.2
C43A U61A U127C C132U U145G | ≤ -4.2
C43A C87A A89G C93U | ≤ -4.2
U44A G62A G84A U134A | ≤ -4.2
A41G A47C G81C | -0.0928
U44G A52G U53A C75A | ≤ -4.2
U44A G50C G84U G88A U139C G152A | ≤ -4.2
G42C A47G G88C | ≤ -4.2
C43A G83C U90G G140U | ≤ -4.2
U44A G48C G59A U82C C116G C123U U134C | ≤ -4.2
U45A C85U C118G A138U | -4.16
G42U G50A C118U A122C | ≤ -4.2
U44G A73G A91G A107C | ≤ -4.2
A41G C96A C149U | -0.509
G42C U44A U90G G140U A147U | ≤ -4.2
G46A C85A C87U C99A | ≤ -4.2
U44A U55A C69G G86U G141A | -4.2
C43U C93G U109G | ≤ -4.2
A41U C57U C85U | -1.12
C43A U44A A91U G141U A150C | ≤ -4.2
U45A U56G A66C G67C G71U C85G G88U A89G C99U A110G C132G | ≤ -4.2

Variant | polymerase ribozyme fitness (log ratio)
G46A A52G G86U A91G A98U C114G | ≤ -4.2
G46C A64G A91C | ≤ -4.2
G46C A52G A137G | -2.44
G46A U56A U82C C93A A107G C125U G136U | ≤ -4.2
U45G C87U U111G A147C | ≤ -4.2
A41G C85A U130G G143U A147G | ≤ -4.2
G46C G74C C87A | ≤ -4.2
U44C G88A U135A U139G | ≤ -4.2
G42C C116G A120U A138G G141U G143A | ≤ -4.2
C43G U55A C96A A98C A121U | ≤ -4.2
A41U A66C G67A C79G C96U A150U | ≤ -4.2
C43A G50A A106G | ≤ -4.2
U44A A49U C72G C79G G92U A150G | ≤ -4.2
U44G G136A | -3.71
U45A G94A | -2.81
U45A C93A G141A | -4.05
G46U A60U G92C U139G | ≤ -4.2
A41C U101G | -0.344
U45A A47U U77G C114G A122U | ≤ -4.2
G46U A120C | -0.32
G42C G92A | ≤ -4.2
G42U A64C C79U G88A A106G A107C A147U | ≤ -4.2
G42A G94U | ≤ -4.2
